Measurements taken from US20160015831A1 (BIOALLIANCE C V, published 2016).
Each block holds one binder with its values, some of them ahead of it.

Experiments:
human CD22 [1] = target: T1, human CD22 (human, UniProt P20273 20-847); assay: flow cytometry, Daudi cells, Tap18Hr1 conjugate 3.3 µg/mL
T1 construct: Endogenous CD22 on human cell lines Daudi, Raji, Ramos, RL, REH and NALM-6; no signal peptide limits are stated; also called antigen CD22
Description: (§1) 6×10⁴˜1×10⁵ cells were seeded per well in a v-bottomed 96-well plate and incubated with 100 μl of the unconjugated Abs or the ADCs at titrated concentrations or isotype control antibody human IgG at 10 μg/mL. After 30-60 minutes of incubation at 4° C., cells were washed once with 200 μl FACS buffer (lx PBS containing 1% FBS), stained with 100 μl of 1 μg/ml goat F(ab′)2-anti-human IgG (H+L)-RPE (Southern Biotech, Cat. No. 2043-09) in FACS buffer and then incubated at 4° C. for 30˜60 min Cells were washed once with FACS buffer and analyzed by flow cytometer (BD LSR, BD Life Sciences).
(§2) In general, the site-specific conjugated hLL2-IgG4p ADCs retained antigen reactivity of antibody.

human CD22 [2] = target: T1, human CD22; assay: as above; remark: listed apart in the source
Description: as §1
(§3) The binding ability of hLL2-Cys variants with or without drug conjugation was evaluated in Daudi and REH cancer cells.

human CD22 [3] = target: T1, human CD22; assay: flow cytometry, REH cells, Tap18Hr1 conjugate 3.3 µg/mL
Description: as §1, §2

human CD22 [4] = target: T1, human CD22; assay: as above; remark: listed apart in the source
Description: as §1, §3

human CD22 [5] = target: T1, human CD22; assay: cell-based or functional assay

- MFI (human CD22 [1]): 1400
- MFI (human CD22 [2]): 1400
- MFI (human CD22 [3]): 104
- MFI (human CD22 [4]): 104
B1: hLL2-IgG1-Tap18Hr1 (antibody)
heavy: not shown
light: DIQLTQSPSSLSASVGDRVTMSCKSSQSVLYSANHKNYLAWYQQKPGKAPKLLIYWASTRESGVPSRFSGSGSGTDFTFTISSLQPEDIATYYCHQYLSSWTFGGGTKLEIKRTVAAPSVFIFPPSDEQLKSGTASVVCLLNNFYPREAKVQWKVDNALQSGNSQESVTEQDSKDSTYSLSSTLTLSKADYEKHKVYACEVTHQGLSSPVTKSFNRGEC
modifications: Tap18Hr1 linker-drug on cysteine thiols of the partially reduced antibody (light chain with 0 or 1 drug); sites not stated; Tap18Hr1 linker-drug (monomethyl dolastatin 10) on cysteine thiols of the partially reduced antibody, conventional conjugation, DAR 2.7-3.5; sites not stated
notes: also called Anti-hLL2-IgG1-Tap18Hr1; Anti-CD22 (hLL2)-IgG1-Tap18Hr1

- MFI (human CD22 [2]): 914
- MFI (human CD22 [4]): 87
B2: hLL2-S442C-IgG1-Tap18Hr1 (antibody)
heavy: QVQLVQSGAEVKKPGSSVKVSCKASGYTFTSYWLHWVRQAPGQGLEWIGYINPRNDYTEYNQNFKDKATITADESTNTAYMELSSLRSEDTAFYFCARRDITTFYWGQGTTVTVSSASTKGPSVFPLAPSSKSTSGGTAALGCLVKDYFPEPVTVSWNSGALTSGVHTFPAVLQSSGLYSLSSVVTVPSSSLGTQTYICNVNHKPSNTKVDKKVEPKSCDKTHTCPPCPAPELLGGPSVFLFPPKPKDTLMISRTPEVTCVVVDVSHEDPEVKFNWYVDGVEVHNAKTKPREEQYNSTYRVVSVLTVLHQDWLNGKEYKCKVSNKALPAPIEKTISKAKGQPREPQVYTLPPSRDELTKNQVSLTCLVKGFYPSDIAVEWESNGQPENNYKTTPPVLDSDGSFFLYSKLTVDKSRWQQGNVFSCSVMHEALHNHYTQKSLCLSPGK
light: B1 light
modifications: Tap18Hr1 linker-drug (monomethyl dolastatin 10) on the introduced Cys 442 (EU numbering); site-specific conjugation, DAR 1.58-2.01
notes: also called hLL2-S442C-IgG1 Tap18Hr1 conjugate
- % inhibition, WST-1 cytotoxicity, Daudi cells, 1.1 µg/mL (human CD22 [5]): 77.6%
- % inhibition, WST-1 cytotoxicity, Daudi cells, 3.3 µg/mL (human CD22 [5]): 79%
- % inhibition, WST-1 cytotoxicity, Ramos cells, 1.1 µg/mL (human CD22 [5]): 92%
- % inhibition, WST-1 cytotoxicity, Ramos cells, 3.3 µg/mL (human CD22 [5]): 96%

- MFI (human CD22 [2]): 1230
- MFI (human CD22 [4]): 94
B3: hLL2-S157C-IgG1-Tap18Hr1 (antibody)
heavy: not shown
light: B1 light
modifications: Tap18Hr1 linker-drug (monomethyl dolastatin 10) on the introduced Cys 157 (EU numbering); site-specific conjugation, DAR 1.58-2.01
notes: also called hLL2-S157C-IgG1 Tap18Hr1 conjugate
- % inhibition, WST-1 cytotoxicity, Daudi cells, 1.1 µg/mL (human CD22 [5]): 76.3%
- % inhibition, WST-1 cytotoxicity, Daudi cells, 3.3 µg/mL (human CD22 [5]): 79.4%
- % inhibition, WST-1 cytotoxicity, Ramos cells, 1.1 µg/mL (human CD22 [5]): 90.4%
- % inhibition, WST-1 cytotoxicity, Ramos cells, 3.3 µg/mL (human CD22 [5]): 93.9%
